In patent US20220306762A1:

Key:
[1] = biological target: Human CD38 on transiently transfected Expi293 cells (Origene SC321273) (human) (UniProt P28907); assay: flow cytometry, 10 ug/ml scFv-Fc, transfected Expi293 cells
[2] = biological target: Murine CD38 on transiently transfected Expi293 cells (Origene MC208001) (murine) (UniProt P56528); assay: as above
[3] = biological target: His-tagged human CD38 (ACRO Biosystems CD8-H5224) (human) (UniProt P28907); assay: ELISA, 1 ug/ml scFv-Fc, coated His-tagged CD38
[4] = biological target: His-tagged cynomolgus monkey CD38 (ACRO Biosystems, CD8-05223 [sic]) (cynomolgus monkey) (UniProt Q5VAN0); assay: ELISA, 1 ug/ml scFv-Fc, coated His-tagged CD38
[5] = biological target: His-tagged mouse CD38 (ACRO Biosystems CD8-M5223) (mouse) (UniProt P56528); assay: ELISA, 1 ug/ml scFv-Fc, coated His-tagged CD38

FACS percent gated [1] [%] | FACS percent gated [2] [%] | ELISA signal [3] | ELISA signal [4] | ELISA signal [5] | Binder
92.5 | 1.43 | 1.67 | 1.47 | 0.045 | 40769p2.2.H4 scFv-Fc (scFv, part only; not given: Linker, domain order, Fc, V domains shown, not shown: another chain or arm of the molecule; a dimerising Fc or GST; small tags and cut ends) VH: EVQLLESGGGLVQPGGSLRLSCAASGFDFSSYWMNWVRQAPGKGLEWVSTISSGGSIIYYADSVKGQFTISRDNSKNTLYLQMNSLRAEDTAVYYCAKDNWNDYYGMDVWGQGTTVTVSS VL: QSVPTQPPSASGTPGQRVTISCSGSSSNIRDNYVYWYQQVPGTAPKLLIYKDDQRPSGVPDRFSGSKSGTSASLAISGLQSEDEADYYCATWDGSLNARVFGGGTKLTVL
 |  |  |  | 0.044 | 40769p2.2.D3 scFv-Fc (scFv, V domains shown) VH: EVQLLESGGGLIQPGGSLRLSCTASGFDFSSYGMHWVRQAPGKGLEWVGIISDSGGTTYYADSVKGRFTISRDNSKNTLYLQMNSLRAEDTALYYCASYIMDVWGQGITVTVSS VL: QSVLTQPPSASGTPGQRVTISCSGSNSNVGVNSVYWYQQLPGTAPKLLIYGSGRRPSGVPDRFSVSKSGTSASLAISGLQSEDEADYYCAAWDGGLNAWVFGGGTKLTVL
92.1 | 1.46 | 1.7 | 1.46 | 0.044 | 40769p2.2.G3 scFv-Fc (scFv, part only; not given: Linker, domain order, Fc, V domains shown, not shown: another chain or arm of the molecule; a dimerising Fc or GST; small tags and cut ends) VH: EVQLLESGGGLVQPGGSLRLSCTASGITFSRFNMFWVRQAPGKGLEFVASIRDDGSWTYYADSVKGQFTISRDNSKNTLYLQMNSLRAEDTAVYYCAKDYSSKDFIYHYVMDVWGQGTTVTVSS VL: QSVLTQPPSASGTPGQRVTISCSGRNSNIGNNVVNWYQQLPGTAPKLLIYRNQERPSGVPDRFSGSKSGTSASLAISGLQSEDEADYYCASWDDSLNAWVFGRGTKLTVL

Further lines, the binder ahead of its results:

Binder | FACS percent gated [1] [%] | FACS percent gated [2] [%] | ELISA signal [3] | ELISA signal [4] | ELISA signal [5]
40769p2.1.E8 scFv-Fc (scFv, part only; not given: Linker, domain order, Fc, V domains shown, not shown: another chain or arm of the molecule; a dimerising Fc or GST; small tags and cut ends) VH: EVQLLESGGGLVQPGGSLRLSCTGFGFTFTDARMSWVRQAPGKGLEWVADISSYGDNTYYADSVKGRFTISRDNSANTLYVQMNSLRAEDTAVYYCAKRMEREVMTIKLDYHAMDVWGQGTTVTVSS VL: QSVLTQTPSVSGTPGQRVTISCSGVFNIRNYVSWYQQLPGTAPKLLIFKDDQRPSGVPDRFSGSRSGTSASLAISGLQSEDEADYYCAAWDIFLNVWVFGGGTKLTVL | 75.7 | 1.99 | 1.79 | 2.16 | 0.046
40769p2.1.C1 scFv-Fc (scFv, part only; not given: Linker, domain order, Fc, V domains shown, not shown: another chain or arm of the molecule; a dimerising Fc or GST; small tags and cut ends) VH: EVQLLESGGGLVQPGGSLRLSCAASGFSFSDYWMNWVRQAPGKGLEWVSTISSGGNMIYYADSVKGRFTISRDNSKNTLYLRMNSLRAEDTAVYYCAKDNWNDYYGMDVWGQGTTVTVSS VL: QSVLTQPPSASGTPGQRVTISCSGSSSNIRDNYVYWYQQVPGTAPKLLIYKDDQRPSGVPDRFSGSKSGSSASLAISGLQSEDEADYYCATWDGSLNARVFGGGTKLTVL | 74.9 |  | 2.42 | 2.35 | 0.048
40769p2.1.E5 scFv-Fc (scFv, part only; not given: Linker, domain order, Fc, V domains shown, not shown: another chain or arm of the molecule; a dimerising Fc or GST; small tags and cut ends) VH: EVQLLESGGGLVQPGGSLRLSCTASAHIFKYNWMSWVRQAPGKGLEWVSSINSDGTITYYTDSVKGRFTISRDNSKNTLYLQMNSLRAEDTAVYYCAKDNWNDYAIDVWGQGTTVTVSS VL: QSVLTQPPSASGTPGQRVTISCSGSRSDIRNNYVSWYQQLPGTAPKLLIYSNGQRPSGVPDRFSGSKSGTSASLAISGLQSEDEADYYCAIWDDSLNAWVFGGGTKLTVL | 76.3 | 3.13 | 1.96 | 2.1 | 0.045
40769p2.1.E1 scFv-Fc (scFv, part only; not given: Linker, domain order, Fc, V domains shown, not shown: another chain or arm of the molecule; a dimerising Fc or GST; small tags and cut ends) VH: EVQLLESGGGLIQPGGSLRLSCTASGFDFSSYGMHWVRQAPGKGLEWVAIISDSGGTTYYGDSVKGRFTISRDNSKSTLYLQMNSLRAEDTALYYCASYIMDVWGQGTTVTVSS VL: QSVLTQPPSASGTPEQRVTISCSGSNSNVGDNAVYWYQQLPGTAPKLLFYGTNRRPSGVPDRFSGSKSGTSASLAISGLQSEDEADYYCAAWDDSLNAWVFGGGTKLTVL | 75.4 | 23.7 | 2.04 | 2.04 | 1.53
40769p2.1.G4 scFv-Fc (scFv, part only; not given: Linker, domain order, Fc, V domains shown, not shown: another chain or arm of the molecule; a dimerising Fc or GST; small tags and cut ends) VH: EVQLLESGGGLVQPGGSLRLSCAASGFTFTSHDMNWVRQAPGKGLEWVSTITTGGNTYYADSVKGRFTISRDNSKNTLYLQMTSLRAEDTAVYYCTKHYSMDVWGQGTTVTVSS VL: QSVLTQPPSASGTPGQRVTISCSGSTSNVVFNAVYWYQQLPGTAPKLLFYGKSQRPSGVPDRFSGSKSGTSASLAISGLQSEDEADYYCAAWDDTLNGWVFGGGTKLTVL | 77 | 42.4 | 1.81 | 2.31 | 2.1
40769p2.1.H12 scFv-Fc (scFv, part only; not given: Linker, domain order, Fc, V domains shown, not shown: another chain or arm of the molecule; a dimerising Fc or GST; small tags and cut ends) VH: EVQLLESGGGLIQPGGSLRLSCTASGFDFSSYGMHWVRQAPGKGLEWVGIISDSGGTTYYADSVKGRFTISRDNSKNTLYLQMNSLRAEDTALYYCASYIMDVWGQGITVTVSS VL: QSVLTQPPSASGTPGQRVTISCSGSNSNVGVNSVYWYQQLPGTAPKLLIYGSGRRPSGVPDRFSVSKSGTSASLAISGLQSEDEADYYCAAWDDGLNAWVFGGGTKLTVL | 77.1 | 22.9 | 2.01 | 2.29 | 1.37
